Experimental data from patent publication US20250313650A1 (BIOLEGEND, published 2025).

T1: CHI3L2 expressed in human T cell leukemia cell line Jurkat (human, UniProt Q15782 27-390)
T1 construct: whole, on cells; Endogenous protein, detected by intracellular staining
T1 sequence (looked up): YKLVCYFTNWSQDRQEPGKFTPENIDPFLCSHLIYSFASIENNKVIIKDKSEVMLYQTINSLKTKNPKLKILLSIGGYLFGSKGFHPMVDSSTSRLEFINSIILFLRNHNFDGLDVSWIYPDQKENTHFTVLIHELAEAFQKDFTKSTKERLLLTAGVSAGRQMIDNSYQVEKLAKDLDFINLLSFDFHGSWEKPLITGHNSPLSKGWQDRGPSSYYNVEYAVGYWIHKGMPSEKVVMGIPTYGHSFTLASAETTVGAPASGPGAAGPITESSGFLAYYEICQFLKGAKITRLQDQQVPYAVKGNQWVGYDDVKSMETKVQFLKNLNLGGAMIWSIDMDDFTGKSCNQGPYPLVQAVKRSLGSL

T2: recombinant CHI3L2 (UniProt Q15782 27-390, limits assumed)
T2 sequence (looked up): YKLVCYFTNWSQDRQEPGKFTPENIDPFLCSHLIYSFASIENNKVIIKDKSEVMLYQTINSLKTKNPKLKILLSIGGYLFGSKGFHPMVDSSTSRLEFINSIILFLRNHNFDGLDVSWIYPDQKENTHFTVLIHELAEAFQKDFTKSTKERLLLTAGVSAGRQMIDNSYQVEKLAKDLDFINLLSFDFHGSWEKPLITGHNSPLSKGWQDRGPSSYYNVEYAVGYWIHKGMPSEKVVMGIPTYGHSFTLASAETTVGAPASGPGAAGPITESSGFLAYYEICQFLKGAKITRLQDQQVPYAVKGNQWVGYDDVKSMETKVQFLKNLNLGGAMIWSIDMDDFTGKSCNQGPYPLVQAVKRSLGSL


Key:
[1] = molecular target: T1, CHI3L2 expressed in human T cell …; test: flow cytometry on fixed/permeabilized CHI3L2-expressing Jurkat cells, Alexa-647 antibody
Method: To asses for cross-reactivity with the closely related protein CHI3L2, certain anti-CHI3L1 antibody clones were assessed using CHI3L2 expressing human T cell leukemia cell line Jurkat. Jurkat cells were grown in RPMI media supplemented with 10% FBS in T75 culture flask. Cells were fixed in Fixation Buffer and permeabilized using Intracellular Perm Wash Buffer. 1 μg anti-CHI3L1 antibodies (conjugated to Alexa-647) were added and allowed to incubate for 15 minutes. Cells were then washed twice with Intracellular Perm Wash Buffer and analyzed on a BD LSRII flow cytometer.

recombinant CHI3L2 = molecular target: T2, recombinant CHI3L2; test: flow cytometry blocking assay on fixed/permeabilized THP-1 cells; antibody pre-incubated with recombinant protein
Method: (§1) To assess for specificity for CHI3L1 and cross-reactivity with the closely related protein CHI3L2, certain anti-CHI3L1 antibody clones were assessed using CHI3L1 expressing human […] cell line THP-1. THP-1 cells were grown in RPMI media supplemented with 10% FBS in T75 culture flask. Cells were fixed in Fixation Buffer and permeabilized using Intracellular Perm Wash Buffer. 1 μg anti-CHI3L1 antibodies (conjugated to Alexa-647) were incubated with 5 μg recombinant CHI3L1 or recombinant CHI3L2 for 15 minutes and then added to cells. After 15 minutes incubation, cells were then washed twice with Intracellular Perm Wash Buffer and analyzed on a BD LSRII flow cytometer.

recombinant human CHI3L1 [2] = molecular target: T3, recombinant human CHI3L1 (human, UniProt P36222 22-383); test: flow cytometry blocking assay: 1 µg antibody pre-incubated with 5 µg recombinant CHI3L1, then added to THP-1 cells
T3 construct: also called recombinant CHI3L1; CHI3L1 protein
T3 sequence (P36222 22-383 limits assumed): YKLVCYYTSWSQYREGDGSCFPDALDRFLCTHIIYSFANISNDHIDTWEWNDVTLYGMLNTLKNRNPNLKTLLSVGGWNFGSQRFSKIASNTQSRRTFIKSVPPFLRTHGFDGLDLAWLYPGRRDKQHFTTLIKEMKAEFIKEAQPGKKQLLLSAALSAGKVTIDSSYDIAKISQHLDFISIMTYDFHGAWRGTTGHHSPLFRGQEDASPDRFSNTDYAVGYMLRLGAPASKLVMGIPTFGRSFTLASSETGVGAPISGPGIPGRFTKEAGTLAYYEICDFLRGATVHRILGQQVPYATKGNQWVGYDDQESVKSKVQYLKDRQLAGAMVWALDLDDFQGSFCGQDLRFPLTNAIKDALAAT
Method: as §1

[3] = molecular target: T4, CHI3L1 expressed in human cell lines (THP-1, U-87 MG) (human, UniProt P36222 22-383); test: flow cytometry, fixed/permeabilized CHI3L1-expressing THP-1 cells, 1 µg Alexa-647 antibody
T4 construct: Endogenous CHI3L1 of human cell lines; It was detected inside fixed and permeabilized cells, not on the cell surface; In the ERK assay it is the CHI3L1 made by live U-87 MG cells; also called chitinase 3 like protein 1; YKL-40
T4 sequence (P36222 22-383 limits assumed): as above
Method: In a first experiment, certain anti-CHI31L1 antibodies were assessed using CHI31L1 expressing human […] cell line THP-1. THP-1 cells were grown in RPMI media supplemented with 10% FBS in T75 culture flask. Cells were fixed in Fixation Buffer and permeabilized using Intracellular Perm Wash Buffer. 1 μg anti-CHI31L1 antibodies (conjugated to Alexa-647) were added and allowed to incubate for 15 minutes. Cells were then washed twice with Intracellular Perm Wash Buffer and analyzed on a BD LSRII flow cytometer.

recombinant human CHI3L1 [4] = molecular target: T3, recombinant human CHI3L1; test: bead-based sandwich immunoassay; biotinylated Clone B is the detection antibody, SAV-PE read-out
Method: In this Example, Clone F was paired with Clone B in a bead-based sandwich immunoassay. The assay used Clone F as a capture antibody to capture the antigen (CHI3L1 protein) and then Clone B was used as a detection antibody. The Clone F capture antibody was conjugated on the beads and the Clone B detection antibody was biotinylated. After incubation of the Clone F conjugated beads with CHI3L1 and then detection Clone B, on the beads surface, a sandwich including capture Clone F-CHI3L1-detection Clone B formed. The unbound CHI3L1 protein was then washed off and then streptavidin conjugated to phycoerythrin (SAV-PE) was added, which binds the biotin on the detection Clone B. The final complex including beads-Clone F capture antibody-CHI3L1-Clone B-SAV-PE was acquired onto a flow cytometer and the PE signal on the beads was measured.

recombinant human CHI3L1 [5] = molecular target: T3, recombinant human CHI3L1; test: flow cytometry blocking assay on THP-1 cells (FIG. 5A legend)
Method: as §1

binding result [1] | binding result (recombinant CHI3L2) | binding result (recombinant human CHI3L1 [2]) | binding result [3] | binding result (recombinant human CHI3L1 [4]) | binding result (recombinant human CHI3L1 [5]) | Binder
no binding (tested: 1 µg) | no binding |  |  |  |  | anti-human CHI3L1 (Clone F) (antibody, V domains shown, Hybridoma monoclonal antibody; a mouse IgG1 kappa isotype control was used alongside it) VH: QVQLQQSGPELVRPGVSVKISCKGSGYTFTDYAMHWVKQSHAKSLEWIGVISTYSGHTNYNQKFKGKATMTVDKSSSTAYMELARLTSEDSAIYYCARGVYYKPEFDYWGQGTTLTVSS VL: DIQMTQSSSSFSVSLGDRVTITCKASEDIYNRLAWYQQKPGNAPRLLIFGATSLETGVPSRFSGSGSGKDYTLSITSLQTEDVATYYCQQYSSTPPTFGGGTKLEIK
no binding (tested: 1 µg) | no binding | binds | binds |  |  | anti-human CHI3L1 (Clone H) (antibody, V domains shown, Hybridoma monoclonal antibody; Conjugated to Alexa-647 for flow cytometry) VH: QVQLQQSGPELVRPGVSVKISCKGSGYTFTHYAMHWVKQSHAKSLEWIGVISTYSGNTNYNQKFKGKATMTVDKSSSTAYMELARLTSEDSAIYYCARGVYYKPEFDYWGQGTTLTVSS VL: DIQMTQSSSSFSVSLGDRVTITCKASEDIDNRLAWYQQKPGNAPRLLISGATSLETGVPSRFSGSGSGKDYTLSITSLQTEDVATYYCQQYWSTPPTFGGGTKLEIK
 |  |  |  | binds |  | Clone B (antibody, V domains shown, Hybridoma monoclonal antibody) VH: EVKLLESGGGLVQPGGSLKLSCAASGCDFSRYWMSWVRQAPGKGLEWIGEINPDSSTINYTPSLKDKFIISRDNAKNTLYLQMSKVRSEDTALYYCARPEDHFAMDYWGQGTSVTVSS VL: DIQMTQSPASQSASLGESVTITCLASQTIGTWLAWYQQKPGKSPQLLIYAATSLADGVPSRFSGSGSGTKFSFKISSLQAEDFVSYYCQQLYSTPWTFGGGTKLEIK
no binding (tested: 1 µg) | no binding |  | binds |  | binds | Clone A (antibody, V domains shown, Hybridoma monoclonal antibody; Conjugated to Alexa-647 for flow cytometry) VH: DVQLQESGPDLVKPSQSLSLTCTVTGYSITSGYSWHWIRQFPGNKLEWMGYIHYSGRTNYNPSLKSRISFTRDTSKNQFFLRLNSVTPEDTATYYCARNYGYDEFAYWGQGTLVTVSA VL: QIVLTQSPAIMSASPGEKVTMTCSASSSVSYMHWYQQKSGTSPKRWIYDTSKLASGVPARFSGSGSGTSYSLTISSMEAEDAATYYCQQWSSNPPTFGSGTKLEIK
 |  |  | binds |  |  | Clone E (antibody, V domains shown, Hybridoma monoclonal antibody; Conjugated to Alexa-647 for flow cytometry) VH: DVQLQESGPDLVKPSQSLSLTCTVTGYSITSGYSWHWIRQFPGNKLEWMGYIHYSGTTNYNPSLKSRISITRDTSKNQFFLQLNSVTTEDTATYSCARNYGYDEFAYWGQGTLVTVSA VL: QIVLTQSPAIMSASPGEKVTMTCSASSSVSYMHWYQQKSGTSPKRWIYDTSKLASGVPARFSGSGSGTSYSLTISSMEAEDAATYYCQQWSSNPPTFGSGTKLEIK
